Reference: IntAct's records for PubMed 35512704

B1: Mothers against decapentaplegic homolog 4 (Homo sapiens), Q13485 (parent)
chain: MDNMSITNTPTSNDACLSIVHSLMCHRQGGESETFAKRAIESLVKKLKEKKDELDSLITAITTNGAHPSKCVTIQRTLDGRLQVAGRKGFPHVIYARLWRWPDLHKNELKHVKYCQYAFDLKCDSVCVNPYHYERVVSPGIDLSGLTLQSNAPSSMMVKDEYVHDFEGQPSLSTEGHSIQTIQHPPSNRASTETYSTPALLAPSESNATSTANFPNIPVASTSQPASILGGSHSEGLLQIASGPQPGQQQNGFTGQPATYHHNSTTTWTGSRTAPYTPNLPHHQNGHLQHHPPMPPHPGHYWPVHNELAFQPPISNHPAPEYWCSIAYFEMDVQVGETFKVPSSCPIVTVDGYVDPSGGDRFCLGQLSNVHRTEAIERARLHIGKGVQLECKGEGDVWVRCLSDHAVFVQSYYLDREAGRAPGDAVHKIYPSAYIKVFDLRQCHRQMQQQAATAQAAAAAQAAAVAGNIPGPGSVGGIAPAISLSAAAGIGVDDLRRLCILRMSFVKGWGPDYPRQSIKETPCWIEIHLHRALQLLDEVLHTMPIADPQPLD
partner: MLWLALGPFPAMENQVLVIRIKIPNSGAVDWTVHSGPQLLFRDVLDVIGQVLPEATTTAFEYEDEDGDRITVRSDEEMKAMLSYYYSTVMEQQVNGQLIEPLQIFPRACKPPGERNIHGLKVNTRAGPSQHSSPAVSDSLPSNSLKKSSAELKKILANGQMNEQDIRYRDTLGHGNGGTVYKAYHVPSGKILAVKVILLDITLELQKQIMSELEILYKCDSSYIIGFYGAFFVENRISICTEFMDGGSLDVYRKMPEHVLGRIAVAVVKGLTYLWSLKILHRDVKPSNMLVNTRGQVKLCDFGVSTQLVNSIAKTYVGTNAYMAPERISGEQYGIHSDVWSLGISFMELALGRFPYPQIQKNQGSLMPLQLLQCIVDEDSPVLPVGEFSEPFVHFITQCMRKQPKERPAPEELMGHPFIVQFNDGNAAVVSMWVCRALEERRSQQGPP
B2: Mothers against decapentaplegic homolog 4 (Homo sapiens), Q13485 (parent)
chain: B1 chain
partner: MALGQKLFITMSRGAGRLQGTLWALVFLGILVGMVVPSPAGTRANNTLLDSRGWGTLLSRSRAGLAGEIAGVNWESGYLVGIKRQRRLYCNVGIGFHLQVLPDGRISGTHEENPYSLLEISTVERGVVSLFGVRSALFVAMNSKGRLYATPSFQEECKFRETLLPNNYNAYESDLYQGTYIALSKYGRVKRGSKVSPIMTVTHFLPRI
B3: Mothers against decapentaplegic homolog 4 (Homo sapiens), Q13485 (parent)
chain: B1 chain
partner: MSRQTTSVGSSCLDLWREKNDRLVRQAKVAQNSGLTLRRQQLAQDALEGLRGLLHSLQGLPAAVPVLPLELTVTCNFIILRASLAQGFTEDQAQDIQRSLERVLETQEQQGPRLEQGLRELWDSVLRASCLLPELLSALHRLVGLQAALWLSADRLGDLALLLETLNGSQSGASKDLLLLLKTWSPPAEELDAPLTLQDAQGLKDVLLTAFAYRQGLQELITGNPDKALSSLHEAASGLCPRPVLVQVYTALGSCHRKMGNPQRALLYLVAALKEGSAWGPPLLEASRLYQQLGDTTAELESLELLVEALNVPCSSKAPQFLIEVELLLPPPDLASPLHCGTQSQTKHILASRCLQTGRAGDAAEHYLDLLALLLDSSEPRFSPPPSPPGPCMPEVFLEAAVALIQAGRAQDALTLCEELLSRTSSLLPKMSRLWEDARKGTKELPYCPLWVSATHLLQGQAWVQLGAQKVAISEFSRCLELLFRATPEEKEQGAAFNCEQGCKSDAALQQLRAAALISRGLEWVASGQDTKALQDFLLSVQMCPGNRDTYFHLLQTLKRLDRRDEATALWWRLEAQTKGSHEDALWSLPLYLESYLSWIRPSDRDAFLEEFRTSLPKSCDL
B4: Mothers against decapentaplegic homolog 4 (Homo sapiens), Q13485 (parent)
chain: B1 chain
partner: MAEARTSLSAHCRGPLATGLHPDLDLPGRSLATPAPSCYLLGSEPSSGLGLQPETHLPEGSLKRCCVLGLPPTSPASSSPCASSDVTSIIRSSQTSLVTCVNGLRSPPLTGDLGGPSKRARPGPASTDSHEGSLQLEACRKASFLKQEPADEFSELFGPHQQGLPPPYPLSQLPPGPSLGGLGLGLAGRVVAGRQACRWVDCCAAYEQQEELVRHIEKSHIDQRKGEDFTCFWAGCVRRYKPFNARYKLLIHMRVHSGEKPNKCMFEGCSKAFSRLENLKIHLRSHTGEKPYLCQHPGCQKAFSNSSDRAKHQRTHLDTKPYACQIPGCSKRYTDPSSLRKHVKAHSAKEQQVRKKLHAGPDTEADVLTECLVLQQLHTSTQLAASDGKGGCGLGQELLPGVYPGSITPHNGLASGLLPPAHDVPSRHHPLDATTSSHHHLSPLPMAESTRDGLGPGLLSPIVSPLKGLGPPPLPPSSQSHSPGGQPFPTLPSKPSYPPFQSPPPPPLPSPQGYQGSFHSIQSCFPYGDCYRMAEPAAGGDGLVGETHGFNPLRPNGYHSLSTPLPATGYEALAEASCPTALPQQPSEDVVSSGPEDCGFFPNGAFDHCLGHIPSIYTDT
B5: Mothers against decapentaplegic homolog 4 (Homo sapiens), Q13485 (parent)
chain: B1 chain
partner: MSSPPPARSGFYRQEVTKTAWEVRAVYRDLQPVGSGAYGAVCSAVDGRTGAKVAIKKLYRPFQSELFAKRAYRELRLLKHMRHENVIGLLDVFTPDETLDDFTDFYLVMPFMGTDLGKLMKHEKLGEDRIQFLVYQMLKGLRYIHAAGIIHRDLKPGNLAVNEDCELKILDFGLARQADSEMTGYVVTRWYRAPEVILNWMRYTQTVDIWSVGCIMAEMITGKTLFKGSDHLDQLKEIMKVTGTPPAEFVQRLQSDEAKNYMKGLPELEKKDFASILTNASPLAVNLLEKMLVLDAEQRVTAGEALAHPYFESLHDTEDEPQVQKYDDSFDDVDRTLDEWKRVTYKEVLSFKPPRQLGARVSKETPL
B6: Mothers against decapentaplegic homolog 4 (Homo sapiens), Q13485 (parent)
chain: B1 chain
partner: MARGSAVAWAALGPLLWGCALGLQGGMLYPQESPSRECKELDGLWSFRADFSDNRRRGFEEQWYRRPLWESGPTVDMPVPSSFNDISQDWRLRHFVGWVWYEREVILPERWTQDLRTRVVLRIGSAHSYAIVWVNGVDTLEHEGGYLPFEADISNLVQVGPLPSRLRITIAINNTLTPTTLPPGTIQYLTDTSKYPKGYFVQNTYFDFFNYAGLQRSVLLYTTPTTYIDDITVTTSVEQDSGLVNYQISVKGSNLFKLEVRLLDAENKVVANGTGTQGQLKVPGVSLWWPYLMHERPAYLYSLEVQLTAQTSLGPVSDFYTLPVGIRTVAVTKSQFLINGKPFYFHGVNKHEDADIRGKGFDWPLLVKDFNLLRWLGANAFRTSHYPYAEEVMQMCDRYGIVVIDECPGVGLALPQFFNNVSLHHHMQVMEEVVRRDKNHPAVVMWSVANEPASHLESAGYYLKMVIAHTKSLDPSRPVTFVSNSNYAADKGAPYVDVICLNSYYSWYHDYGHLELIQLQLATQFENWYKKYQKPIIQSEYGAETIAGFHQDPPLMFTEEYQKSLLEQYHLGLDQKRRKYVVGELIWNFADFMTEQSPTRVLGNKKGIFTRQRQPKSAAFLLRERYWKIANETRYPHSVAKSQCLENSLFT
B7: Mothers against decapentaplegic homolog 4 (Homo sapiens), Q13485 (parent)
chain: B1 chain
partner: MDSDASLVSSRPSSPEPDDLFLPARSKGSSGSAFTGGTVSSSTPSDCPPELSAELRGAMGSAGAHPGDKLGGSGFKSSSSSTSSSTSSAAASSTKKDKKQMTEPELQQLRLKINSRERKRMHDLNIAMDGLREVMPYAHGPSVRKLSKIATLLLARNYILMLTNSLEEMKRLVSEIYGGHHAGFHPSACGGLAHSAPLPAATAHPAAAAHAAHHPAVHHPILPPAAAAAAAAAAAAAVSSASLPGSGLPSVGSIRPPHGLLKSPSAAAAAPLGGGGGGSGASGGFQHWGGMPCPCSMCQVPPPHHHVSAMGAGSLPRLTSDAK

Variants of: B1
Conditions: with mp2k5_human MAP2K5, Q13163

Variant	effect of a mutation on the interaction
G386D	with no effect

Variants of: B2
Conditions: with fgf6_human FGF6, P10767

Variant	effect of a mutation on the interaction
R361H	with no effect

Variants of: B2
Conditions: with fgf6_human FGF6, P10767
Remark: another data set of the same source

Variant	effect of a mutation on the interaction
R361C	with no effect

Variants of: B2
Conditions: with fgf6_human FGF6, P10767
Remark: another data set of the same source

Variant	effect of a mutation on the interaction
G386D	with no effect

Variants of: B2
Conditions: with fgf6_human FGF6, P10767
Remark: another data set of the same source

Variant	effect of a mutation on the interaction
D351H	with no effect

Variants of: B3
Conditions: with fancg_human FANCG

Variant	effect of a mutation on the interaction
D351H	with no effect

Variants of: B3
Conditions: with fancg_human FANCG
Remark: another data set of the same source

Variant	effect of a mutation on the interaction
G386D	with no effect

Variants of: B3
Conditions: with fancg_human FANCG
Remark: another data set of the same source

Variant	effect of a mutation on the interaction
R361C	with no effect

Variants of: B3
Conditions: with fancg_human FANCG
Remark: another data set of the same source

Variant	effect of a mutation on the interaction
R361H	with no effect

Variants of: B4
Conditions: with glis1_human GLIS1, Q8NBF1

Variant	effect of a mutation on the interaction
R361H	with no effect

Variants of: B4
Conditions: with glis1_human GLIS1, Q8NBF1
Remark: another data set of the same source

Variant	effect of a mutation on the interaction
D351H	with no effect

Variants of: B4
Conditions: with glis1_human GLIS1, Q8NBF1
Remark: another data set of the same source

Variant	effect of a mutation on the interaction
G386D	with no effect

Variants of: B5
Conditions: with mk12_human MAPK12, P53778

Variant	effect of a mutation on the interaction
D351H	with no effect

Variants of: B5
Conditions: with mk12_human MAPK12, P53778
Remark: another data set of the same source

Variant	effect of a mutation on the interaction
R361C	with no effect

Variants of: B5
Conditions: with mk12_human MAPK12, P53778
Remark: another data set of the same source

Variant	effect of a mutation on the interaction
R361H	with no effect

Variants of: B5
Conditions: with mk12_human MAPK12, P53778
Remark: another data set of the same source

Variant	effect of a mutation on the interaction
G386D	with no effect

Variants of: B6
Conditions: with bglr_human GUSB

Variant	effect of a mutation on the interaction
D351H	with no effect

Variants of: B6
Conditions: with bglr_human GUSB
Remark: another data set of the same source

Variant	effect of a mutation on the interaction
G386D	with no effect

Variants of: B6
Conditions: with bglr_human GUSB
Remark: another data set of the same source

Variant	effect of a mutation on the interaction
R361H	with no effect

Variants of: B6
Conditions: with bglr_human GUSB
Remark: another data set of the same source

Variant	effect of a mutation on the interaction
R361C	with no effect

Variants of: B7
Conditions: with olig2_human OLIG2, Q13516

Variant	effect of a mutation on the interaction
G386D	with no effect

Variants of: B7
Conditions: with olig2_human OLIG2, Q13516
Remark: another data set of the same source

Variant	effect of a mutation on the interaction
D351H	with no effect

Variants of: B7
Conditions: with olig2_human OLIG2, Q13516
Remark: another data set of the same source

Variant	effect of a mutation on the interaction
R361C	with no effect
